The values below come from the RNAGym collection of RNA variant scans (doi:10.1073/pnas.2313332121).

To fix the notation:
B1: TPR 5TU (parent)
chain: GGAUCUUCUCGAUCUAACAAAAAAGACAAAUCUGCCACAAAGCUUGAGAGCAUCUUCGGAUGCAGAGGCGGCAGCCUUCGGUGGCGCGAUAGCGCCAACGUUCUCAACUAUGACACGCAAAACGCGUGCUCCGUUGAAUGGAGUUUAUCAUG

Variants at the floor of the assay were thinned out. A value given as a limit tells only on which side of the number the result lay.

Variants of B1 are the subject of this data set. Kind of data set: polymerase ribozyme fitness, log enrichment relative to wild type (log ratio); higher = more active; in vitro selection for triplet polymerase activity. The method, boiled down: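 Both subunits of a heterodimeric triplet polymerase ribozyme were given their own mutant library, built by PCR and transcribed. Each library was annealed with a biotinylated primer, the partner subunit and triplets, incubated frozen at −7 °C, and its extended constructs gel-excised, captured on streptavidin beads and amplified by RT-PCR, all in one round done in triplicate. Fitness is the logarithm of genotype enrichment relative to wild-type enrichment, with replicates averaged by inverse-variance weighting. That logarithm is base 2, and Illumina-sequenced genotypes needed ≥10 input reads and ≥1 read per output.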
Take GGAUCUUCUCGAUCUAACAAAAAAGACAAAUCUGCCACAAAGCUUGAGAGCAUCUUCGGAUGCAGAGGCGGCAGCCUUCGGUGACGCGAUAGCGCCAACGUCCUAAGCUAUGACACGCAAAACGCGUGCUCCGUUGAAUGGAGUUUAUCAUG [G84A U102C C105A A107G]: the “polymerase ribozyme fitness (log ratio)” value is no more than -4.2.
The same measure for GGAUCUUCUCGAUCUAACAAAAAAGACAAAUCUGCCACAAAGCUUGAGAGCAUCUUCGGUUGCAGAGGCGGCAGCCUUCGGUGGCGCGAUAGCCCCAACGUUCUCAACUAUGACACGCAAAACGCGUGCUCCGUUGAAUGGAGUUUAUCAUG [A60U G94C]: -1.12; for GGAUCUUCUCGAUCUAACAAAAAAGACAAAUCUGCCACAAAGCUUGAGAGCAUCUUCGGAUGCAGGGGCGGCAGCCUUCGGUGGCGCGAUACCGCCAACGUUCUCAACUAUGACACGCAAAACGCGUGCUCCGUUGAAUGGAGUUUAUCAUG [A66G G92C]: -3.77.
Under GGAUGUUCUCGAUCUAACAAAAAAGACAAAUCUGCCACAAAGUUUGAGAGCAUCUUCGGAUGCAGAGGCGGCUGCCUUCGGUGGCGCGAUAUCGCCAACGUUCUCAACUAUGACACGCAAAACGCGUGCUCCGAUGAAUGGAGCUUAUCAUG [C5G C43U A73U G92U U134A U144C] stands no more than -4.2; under GGAUCGUCUCGAUCUAACAAAAAAGACUAAUCUGCCAUAAAGCUUGAGAGCAUCUUCGGAUGCAGGGGCGGCAGCCUUCGGUGGCGCGAUAGCGGCAACGUUCUCAACUAUGACACGCAUAACGCGUGCUCCGUUGAAUGGAGUUUAUCUUG [U6G A28U C38U A66G C95G A120U A150U], no more than -4.2; under GGAUCUUCUCGAUCUAACAAAAAAGACAAAACUGCCACAAAGCUUGAGAGCAACUUCGGAUGCAGAGGCGGCAGCCUUCGGUUGCGCGAUAGCGCCAACCUUCUCAACUAUGACACGCAAAACGCGUGCUCCAUUGAAUGGAGUUUAUCAUG [U31A U53A G83U G100C G133A], no more than -4.2.
Under GGAUCUUCUGGAUCUAACAAAAAAGACAAAUCUGCCACAAAGCUUGCGAGCAUAAUCAGAUGUAGAGGCGGCAGCCUUCGGCGGCGGGAUAGCGCCAACUUUCUCAACUAUGCCACGCAAAACGCGUGCUCCGGUGAAUGGAGUUUAUCAUG [C10G A47C C54A U55A G58A C63U U82C C87G G100U A113C U134G] stands no more than -4.2; under GGAUCUUCUCGAUCUAACUAAAAAGACAAAUCUGCCACAACGCUUGAGACCAUCUUCGGAUGCAGAGGCGGCAGCCUUCGGUGGCGCGAUAGCGCUAAUGGUCUCAACUAUGACACGCAAAACGCGUGCUCCGUUGAAUGGAGUUUAUCAUG [A19U A41C G50C C96U C99U U101G], no more than -4.2.
For GGAUCUUCUCGAUCUAACAAAAAAGACAAAUCUGCCACAAAGCUUGAGAGCAUCUUCGGAUGCAGAGGCGGCAGCCUUCGGUGGCGCGAUAGCGCCAACGUUCUCAACUAUGACACGCAAAACGCGAGCUCCGUUGAAUGGAGUUUAUCAUG [U127A], the “polymerase ribozyme fitness (log ratio)” value was -2.94.
The same measure for GGAUCUUCUCGAUCAAACAAAAAGGACAAAUCUGCCACAAAGCUUGAGAGCAUCUUCGGAUGCAGAGGCGGCAGCCUUCGGUGGCGCGAUAGCGCCAGAGUUCUCAACUAUGACACGCAAAACGCGUGCUCCGUUGAAUGGAGUUUAUCAUG [U15A A24G A98G C99A]: no more than -4.2.
As to GGGUCUUCUCGAUCUUAUAAACAACACAAAUCUGCCACAAAGUUUGAGCGCAUCUUCGGAUGCAGAGCCGGCAGCCUUCGGUGGCGCGAUAGCGCCAACGUUCUCCACUAUGACACGCAAAACGCGUGCUCCGUUGAAUGGAGUCUAUCAUG [A3G A16U C18U A22C G25C C43U A49C G68C A106C U145C], the “polymerase ribozyme fitness (log ratio)” value was no more than -4.2.
The same measure for GGAUCUUCUCGAUCUAACAAAAAAGACAAAUCUGCCACAAAGCCUGAGAGUAUCUUCGGAUGCAGAGGCGGCAGCCUUCGGUGGCGCGAUAUCGCGAACGUGCUCAACUAUGACACGCAAAACGCGUCCUCCGUUGAAUGGAGUUUAUCAUG [U44C C51U G92U C96G U102G G128C]: no more than -4.2; for GGAUCUUCUCGAUCUAACAAAAAAGACAAAGCUGCCACAAAGCUUGACAGCAUCUUCGGAUGCAGAGGCGGCAGCCUUCGGUGGCGCGAUAGCGCCAACGUUCUCAACUAGGACACGCAAAACGCGUGCUCCGUUGAAUGGAAUUUAUCAUG [U31G G48C U111G G143A]: no more than -4.2; for GGAUCUUCUCGCUCUAACAAAAAAGACAAAUCUGCCACAAAGCUUGAGAGCAUCUUCGGAUGCAGAGGCGGCAGCCUUCGGUGGCGCGAUAGCGCCGACGUGCUCAACUAUGACACGCAAAACGCGUGCUCCGUUGAAUGGAGUUUAUCAUG [A12C A97G U102G]: -3.89.
The same measure for GGACCUUCUCGAUCUAACAAAAAAGACAAAUAUGCCGCAAAGCUUGAGAGCAUCUUCGGAUGCAGAGGCGGCAGCCUUCGGUUGCGCGAUAGCGCCAACGUUCUCAACUAUGACACGCAAAUCGCGUGCUCCGUUGAAUGGAGUUUAUCAAG [U4C C32A A37G G83U A122U U151A]: no more than -4.2.
Under GGAUCUUCUCGAUCUAACAAAAAAGACAAAUCUGCCACAAAUCUUGAGAGCAUCUUCGGAUGCAGAGGCGGCAGCCUUCGGUGGCGCGAUAGCGCCAGCGUUCUCAACUAUGACACGCAAAACGCGUGCUCCGUUGAACGGAGUUUAUCAUG [G42U A98G U139C] stands no more than -4.2; under GGAUCUUCUCGAUCUAACAAAAAAGACAAAUCUGCCACAAAGCUUGAGUGCAUCUUCGGACGCAGAGGCAGCAGCCUUCGGUGGCGCGAUAUCGCCAACGUUCUCAACUAUGACACGCAAAACGCGUGCUCCGUUGAAUGGAGUUUAUCAUG [A49U U61C G70A G92U], no more than -4.2.
In the case of GGAUCUUCUCGAUCUAACAAAAAAGACAAAUCUGCCACAAAGCUUGAGAGCAUCUUCGGAUGCAGAGGCGGCAGCCUUCGGUGGCGAGAUAGCGCCAACGUUCUCAACUAUGACACGCAAAACGCUUGCUCCGUUGAAUGGAGUUUAUCAUG [C87A G126U], the “polymerase ribozyme fitness (log ratio)” value was no more than -4.2.
The same measure for GGAUCUUCUCGAUCUAACAAAAAAGACAAAUCUGCCACAAAGCUUGAGAGCAUCUUCGGAUGCAGAGGCGGCAGCCUUCGGUGGCGCGAUAGCGCCUACGUUCUCAACUAUGACACGCAAAAUGCGUGCUCCGUUGAAUGGAGUUUAUCAUG [A97U C123U]: 0.268.
